Sequences and labels used below:
T1: human amylin receptor (human calcitonin receptor + human RAMP3) (human) (UniProt P30988)
T1 sequence (looked up) 1: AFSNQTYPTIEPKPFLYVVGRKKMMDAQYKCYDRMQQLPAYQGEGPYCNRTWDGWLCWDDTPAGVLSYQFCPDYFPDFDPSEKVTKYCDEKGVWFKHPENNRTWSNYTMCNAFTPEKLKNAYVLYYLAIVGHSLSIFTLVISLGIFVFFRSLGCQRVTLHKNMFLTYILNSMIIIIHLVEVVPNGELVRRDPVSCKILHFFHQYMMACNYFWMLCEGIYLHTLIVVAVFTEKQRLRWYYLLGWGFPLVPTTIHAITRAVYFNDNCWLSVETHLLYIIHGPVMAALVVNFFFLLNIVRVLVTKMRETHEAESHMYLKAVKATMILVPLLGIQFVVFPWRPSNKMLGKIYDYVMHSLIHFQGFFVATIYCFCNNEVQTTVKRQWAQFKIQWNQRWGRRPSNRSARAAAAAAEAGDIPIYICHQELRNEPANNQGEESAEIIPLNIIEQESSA
T1 sequence (looked up) 2: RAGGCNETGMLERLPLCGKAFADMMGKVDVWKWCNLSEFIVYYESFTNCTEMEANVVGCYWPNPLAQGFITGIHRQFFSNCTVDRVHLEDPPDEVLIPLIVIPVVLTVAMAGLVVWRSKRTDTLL

B1: [N-terminal(C20 diacid-gGlu), des1, 23Y, 30S, 31G, 34G, C-terminal(-)]mimylin (peptide)
peptide: {C20 diacid-γGlu}-ASELSTAALGRLSAELHELATYPRTETGSGSPG-OH
SMILES: CC(C)C[C@H](NC(=O)[C@H](C)NC(=O)[C@H](C)NC(=O)[C@@H](NC(=O)[C@H](CO)NC(=O)[C@H](CC(C)C)NC(=O)[C@H](CCC(=O)O)NC(=O)[C@H](CO)NC(=O)[C@H](C)NC(=O)CC[C@H](NC(=O)CCCCCCCCCCCCCCCCCCC(=O)O)C(=O)O)[C@@H](C)O)C(=O)NCC(=O)N[C@@H](CCCNC(=N)N)C(=O)N[C@@H](CC(C)C)C(=O)N[C@@H](CO)C(=O)N[C@@H](C)C(=O)N[C@@H](CCC(=O)O)C(=O)N[C@@H](CC(C)C)C(=O)N[C@@H](Cc1c[nH]cn1)C(=O)N[C@@H](CCC(=O)O)C(=O)N[C@@H](CC(C)C)C(=O)N[C@@H](C)C(=O)N[C@H](C(=O)N[C@@H](Cc1ccc(O)cc1)C(=O)N1CCC[C@H]1C(=O)N[C@@H](CCCNC(=N)N)C(=O)N[C@H](C(=O)N[C@@H](CCC(=O)O)C(=O)N[C@H](C(=O)NCC(=O)N[C@@H](CO)C(=O)NCC(=O)N[C@@H](CO)C(=O)N1CCC[C@H]1C(=O)NCC(=O)O)[C@@H](C)O)[C@@H](C)O)[C@@H](C)O
B2: [N-terminal(C18 diacid-gGlu), des1, 5V, 9V, 10V, 30S, 31G]mimylin (peptide)
peptide: {C18 diacid-γGlu}-ASEVSTAVVGRLSAELHELATLPRTETGSGSP-NH2
SMILES: CC(C)C[C@H](NC(=O)[C@H](CCC(=O)O)NC(=O)[C@H](Cc1c[nH]cn1)NC(=O)[C@H](CC(C)C)NC(=O)[C@H](CCC(=O)O)NC(=O)[C@H](C)NC(=O)[C@H](CO)NC(=O)[C@H](CC(C)C)NC(=O)[C@H](CCCNC(=N)N)NC(=O)CNC(=O)[C@@H](NC(=O)[C@@H](NC(=O)[C@H](C)NC(=O)[C@@H](NC(=O)[C@H](CO)NC(=O)[C@@H](NC(=O)[C@H](CCC(=O)O)NC(=O)[C@H](CO)NC(=O)[C@H](C)NC(=O)CC[C@H](NC(=O)CCCCCCCCCCCCCCCCC(=O)O)C(=O)O)C(C)C)[C@@H](C)O)C(C)C)C(C)C)C(=O)N[C@@H](C)C(=O)N[C@H](C(=O)N[C@@H](CC(C)C)C(=O)N1CCC[C@H]1C(=O)N[C@@H](CCCNC(=N)N)C(=O)N[C@H](C(=O)N[C@@H](CCC(=O)O)C(=O)N[C@H](C(=O)NCC(=O)N[C@@H](CO)C(=O)NCC(=O)N[C@@H](CO)C(=O)N1CCC[C@H]1C(N)=O)[C@@H](C)O)[C@@H](C)O)[C@@H](C)O
B3: [N-terminal(C20 diacid-gGlu), des1, 12H, 25H, 30T, 31G, 32T]mimylin (peptide)
peptide: {C20 diacid-γGlu}-ASELSTAALGHLSAELHELATLPHTETGTGTP-NH2
SMILES: CC(C)C[C@H](NC(=O)[C@H](C)NC(=O)[C@H](C)NC(=O)[C@@H](NC(=O)[C@H](CO)NC(=O)[C@H](CC(C)C)NC(=O)[C@H](CCC(=O)O)NC(=O)[C@H](CO)NC(=O)[C@H](C)NC(=O)CC[C@H](NC(=O)CCCCCCCCCCCCCCCCCCC(=O)O)C(=O)O)[C@@H](C)O)C(=O)NCC(=O)N[C@@H](Cc1c[nH]cn1)C(=O)N[C@@H](CC(C)C)C(=O)N[C@@H](CO)C(=O)N[C@@H](C)C(=O)N[C@@H](CCC(=O)O)C(=O)N[C@@H](CC(C)C)C(=O)N[C@@H](Cc1c[nH]cn1)C(=O)N[C@@H](CCC(=O)O)C(=O)N[C@@H](CC(C)C)C(=O)N[C@@H](C)C(=O)N[C@H](C(=O)N[C@@H](CC(C)C)C(=O)N1CCC[C@H]1C(=O)N[C@@H](Cc1c[nH]cn1)C(=O)N[C@H](C(=O)N[C@@H](CCC(=O)O)C(=O)N[C@H](C(=O)NCC(=O)N[C@H](C(=O)NCC(=O)N[C@H](C(=O)N1CCC[C@H]1C(N)=O)[C@@H](C)O)[C@@H](C)O)[C@@H](C)O)[C@@H](C)O)[C@@H](C)O
B4: [N-terminal(C18 diacid-gGlu), des1, 6T, 9V, 30S, 31G]mimylin (peptide)
peptide: {C18 diacid-γGlu}-ASELTTAVLGRLSAELHELATLPRTETGSGSP-NH2
SMILES: CC(C)C[C@H](NC(=O)[C@H](CCC(=O)O)NC(=O)[C@H](Cc1c[nH]cn1)NC(=O)[C@H](CC(C)C)NC(=O)[C@H](CCC(=O)O)NC(=O)[C@H](C)NC(=O)[C@H](CO)NC(=O)[C@H](CC(C)C)NC(=O)[C@H](CCCNC(=N)N)NC(=O)CNC(=O)[C@H](CC(C)C)NC(=O)[C@@H](NC(=O)[C@H](C)NC(=O)[C@@H](NC(=O)[C@@H](NC(=O)[C@H](CC(C)C)NC(=O)[C@H](CCC(=O)O)NC(=O)[C@H](CO)NC(=O)[C@H](C)NC(=O)CC[C@H](NC(=O)CCCCCCCCCCCCCCCCC(=O)O)C(=O)O)[C@@H](C)O)[C@@H](C)O)C(C)C)C(=O)N[C@@H](C)C(=O)N[C@H](C(=O)N[C@@H](CC(C)C)C(=O)N1CCC[C@H]1C(=O)N[C@@H](CCCNC(=N)N)C(=O)N[C@H](C(=O)N[C@@H](CCC(=O)O)C(=O)N[C@H](C(=O)NCC(=O)N[C@@H](CO)C(=O)NCC(=O)N[C@@H](CO)C(=O)N1CCC[C@H]1C(N)=O)[C@@H](C)O)[C@@H](C)O)[C@@H](C)O
B5: [N-terminal(C20 diacid-gGlu), des1, 9T, 21S, 23Y, 30S, 31G]mimylin (peptide)
peptide: {C20 diacid-γGlu}-ASELSTATLGRLSAELHELSTYPRTETGSGSP-NH2
SMILES: CC(C)C[C@H](NC(=O)[C@H](CCCNC(=N)N)NC(=O)CNC(=O)[C@H](CC(C)C)NC(=O)[C@@H](NC(=O)[C@H](C)NC(=O)[C@@H](NC(=O)[C@H](CO)NC(=O)[C@H](CC(C)C)NC(=O)[C@H](CCC(=O)O)NC(=O)[C@H](CO)NC(=O)[C@H](C)NC(=O)CC[C@H](NC(=O)CCCCCCCCCCCCCCCCCCC(=O)O)C(=O)O)[C@@H](C)O)[C@@H](C)O)C(=O)N[C@@H](CO)C(=O)N[C@@H](C)C(=O)N[C@@H](CCC(=O)O)C(=O)N[C@@H](CC(C)C)C(=O)N[C@@H](Cc1c[nH]cn1)C(=O)N[C@@H](CCC(=O)O)C(=O)N[C@@H](CC(C)C)C(=O)N[C@@H](CO)C(=O)N[C@H](C(=O)N[C@@H](Cc1ccc(O)cc1)C(=O)N1CCC[C@H]1C(=O)N[C@@H](CCCNC(=N)N)C(=O)N[C@H](C(=O)N[C@@H](CCC(=O)O)C(=O)N[C@H](C(=O)NCC(=O)N[C@@H](CO)C(=O)NCC(=O)N[C@@H](CO)C(=O)N1CCC[C@H]1C(N)=O)[C@@H](C)O)[C@@H](C)O)[C@@H](C)O
B6: [N-terminal(C18 diacid-gGlu), des1, 4Q, 16Q, 30S, 31G]mimylin (peptide)
peptide: {C18 diacid-γGlu}-ASQLSTAALGRLSAQLHELATLPRTETGSGSP-NH2
SMILES: CC(C)C[C@H](NC(=O)[C@H](C)NC(=O)[C@H](C)NC(=O)[C@@H](NC(=O)[C@H](CO)NC(=O)[C@H](CC(C)C)NC(=O)[C@H](CCC(N)=O)NC(=O)[C@H](CO)NC(=O)[C@H](C)NC(=O)CC[C@H](NC(=O)CCCCCCCCCCCCCCCCC(=O)O)C(=O)O)[C@@H](C)O)C(=O)NCC(=O)N[C@@H](CCCNC(=N)N)C(=O)N[C@@H](CC(C)C)C(=O)N[C@@H](CO)C(=O)N[C@@H](C)C(=O)N[C@@H](CCC(N)=O)C(=O)N[C@@H](CC(C)C)C(=O)N[C@@H](Cc1c[nH]cn1)C(=O)N[C@@H](CCC(=O)O)C(=O)N[C@@H](CC(C)C)C(=O)N[C@@H](C)C(=O)N[C@H](C(=O)N[C@@H](CC(C)C)C(=O)N1CCC[C@H]1C(=O)N[C@@H](CCCNC(=N)N)C(=O)N[C@H](C(=O)N[C@@H](CCC(=O)O)C(=O)N[C@H](C(=O)NCC(=O)N[C@@H](CO)C(=O)NCC(=O)N[C@@H](CO)C(=O)N1CCC[C@H]1C(N)=O)[C@@H](C)O)[C@@H](C)O)[C@@H](C)O
B7: [N-terminal(C20 diacid-gGlu), des1, 23Y, 30S, 31G, 34K, C-terminal(-)]mimylin (peptide)
peptide: {C20 diacid-γGlu}-ASELSTAALGRLSAELHELATYPRTETGSGSPK-OH
SMILES: CC(C)C[C@H](NC(=O)[C@H](C)NC(=O)[C@H](C)NC(=O)[C@@H](NC(=O)[C@H](CO)NC(=O)[C@H](CC(C)C)NC(=O)[C@H](CCC(=O)O)NC(=O)[C@H](CO)NC(=O)[C@H](C)NC(=O)CC[C@H](NC(=O)CCCCCCCCCCCCCCCCCCC(=O)O)C(=O)O)[C@@H](C)O)C(=O)NCC(=O)N[C@@H](CCCNC(=N)N)C(=O)N[C@@H](CC(C)C)C(=O)N[C@@H](CO)C(=O)N[C@@H](C)C(=O)N[C@@H](CCC(=O)O)C(=O)N[C@@H](CC(C)C)C(=O)N[C@@H](Cc1c[nH]cn1)C(=O)N[C@@H](CCC(=O)O)C(=O)N[C@@H](CC(C)C)C(=O)N[C@@H](C)C(=O)N[C@H](C(=O)N[C@@H](Cc1ccc(O)cc1)C(=O)N1CCC[C@H]1C(=O)N[C@@H](CCCNC(=N)N)C(=O)N[C@H](C(=O)N[C@@H](CCC(=O)O)C(=O)N[C@H](C(=O)NCC(=O)N[C@@H](CO)C(=O)NCC(=O)N[C@@H](CO)C(=O)N1CCC[C@H]1C(=O)N[C@@H](CCCCN)C(=O)O)[C@@H](C)O)[C@@H](C)O)[C@@H](C)O

Results on eleven molecules are retold here after US20160272683A1 (Novo Nordisk, published 2016).

Numbered stars: 1 amine (or outer) side, 2 acyl side, 3 side chain; on linkers, the order of the positions; unused ones are H or OH. * marks the point of attachment. C20 diacid = O=C(O)CCCCCCCCCCCCCCCCCCC(=O)*; C18 diacid = O=C(O)CCCCCCCCCCCCCCCCC(=O)*; γGlu = O=C(O)[C@H](CCC(=O)[*:2])N[*:1]

The test has as its target T1, human amylin receptor (human calcitonin receptor + human RAMP3) (human). The test can be described thus: whole-cell competition vs 125I-rat amylin (Assay Va).
Regarding B1, the IC50 came out at 7.26 nM.
Then {C18 diacid-γGlu}-ASELTTAVLGRLSAELHELATLPRTETGTGTP-NH2 [[N-terminal(C18 diacid-gGlu), des1, 6T, 9V, 30T, 31G, 32T]mimylin], with 2.15 nM.
Then B2, with 1.17 nM; and B3, with 1.51 nM.
With B4 the figure was 0.653 nM; with {C20 diacid-γGlu}-ASELSTAALGRLSAELHELATYPRTETGSGSY-OH [[N-terminal(C20 diacid-gGlu), des1, 23Y, 30S, 31G, 33Y, C-terminal(-)]mimylin], 92 nM.
Turning to {C18 diacid-γGlu}-ASEVSTAVLGRLSAELHELATLPRTETGSGSP-NH2 [[N-terminal(C18 diacid-gGlu), des1, 5V, 9V, 30S, 31G]mimylin], the half-maximal inhibitory concentration (IC50) was 0.812 nM.
With B5 the figure was 2.61 nM.
With {C18 diacid-γGlu}-ASELTTAVLGRLSAELHELATLPRTETGSGTP-NH2 [[N-terminal(C18 diacid-gGlu), des1, 6T, 9V, 30S, 31G, 32T]mimylin] the figure was 0.652 nM; with B6, 0.428 nM; with B7, 21 nM.
